Reference: PMC7312009, “SIRT7 Deacetylates STRAP to Regulate p53 Activity and Stability” (International Journal of Molecular Sciences, 2020)

Molecular target: T1, Flag-tagged SIRT7 (UniProt Q9NRC8 1-400)
T1 construct: also called SIRT7 protein purified from 293T cells; source: purified from 293T cells; HEK293T, transfected, in lysate
T1 sequence (looked up): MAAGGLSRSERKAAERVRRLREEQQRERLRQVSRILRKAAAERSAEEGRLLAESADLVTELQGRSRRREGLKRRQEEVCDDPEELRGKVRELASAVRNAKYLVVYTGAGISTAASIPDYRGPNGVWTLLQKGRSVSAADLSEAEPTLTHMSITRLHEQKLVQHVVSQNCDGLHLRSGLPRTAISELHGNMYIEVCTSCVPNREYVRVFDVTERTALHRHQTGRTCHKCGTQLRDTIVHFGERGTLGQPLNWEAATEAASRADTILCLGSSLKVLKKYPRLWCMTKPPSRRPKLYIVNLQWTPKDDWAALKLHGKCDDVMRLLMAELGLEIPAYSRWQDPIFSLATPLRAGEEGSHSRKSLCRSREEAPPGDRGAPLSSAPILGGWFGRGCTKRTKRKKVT
Assay: pull-down; 1 μg GST-STRAP fusion protein incubated with Flag-tagged SIRT7 purified from 293T cells in 100 μL BC100 at 4 °C overnight, then glutathione-sepharose beads 2 h; Western blotting
Settings: both partners purified

B1: GST-STRAP full length (natural protein, UniProt Q9Y3F4 1-350, looked up)
chain: MAMRQTPLTCSGHTRPVVDLAFSGITPYGYFLISACKDGKPMLRQGDTGDWIGTFLGHKGAVWGATLNKDATKAATAAADFTAKVWDAVSGDELMTLAHKHIVKTVDFTQDSNYLLTGGQDKLLRIYDLNKPEAEPKEISGHTSGIKKALWCSEDKQILSADDKTVRLWDHATMTEVKSLNFNMSVSSMEYIPEGEILVITYGRSIAFHSAVSLDPIKSFEAPATINSASLHPEKEFLVAGGEDFKLYKYDYNSGEELESYKGHFGPIHCVRFSPDGELYASGSEDGTLRLWQTVVGKTYGLWKCVLPEEDSGELAKPKIGFPETTEEELEEIASENSDCIFPSAPDVKA
notes: Serine-threonine kinase receptor-associated protein (STRAP), full length, subcloned into pGEX4T-3; also called GST-STRAP (FL); full-length STRAP (WT); source: purified GST fusion protein (pGEX4T-3)
B1: binds.
